Laboratory results taken from PMC5552922.

Experiments:
[1] = target: T1, DdrOC cleaved by IrrE (Deinococcus deserti) (UniProt C1CYP4); assay: EMSA; settings: EMSA: 10 mM Tris-HCl pH 7.4, 60 mM NaCl, 1 mM DTT, 5% glycerol, 200 ng DNA in 20 ul, 30 min room temperature; 5% PAGE in TAE at 4 C, ethidium bromide
T1 sequence: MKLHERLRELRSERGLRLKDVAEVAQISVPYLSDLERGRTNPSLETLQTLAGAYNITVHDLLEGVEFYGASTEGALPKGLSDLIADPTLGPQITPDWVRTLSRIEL

[2] = target: T2, DdrOC (DdrO) (Deinococcus deserti) (UniProt C1CYP4); assay: EMSA; settings: EMSA: 10 mM Tris-HCl pH 7.4, 60 mM NaCl, 1 mM DTT, 5% glycerol, 200 ng DNA in 20 ul, 30 min room temperature; 5% PAGE in TAE at 4 C, ethidium bromide
T2 sequence: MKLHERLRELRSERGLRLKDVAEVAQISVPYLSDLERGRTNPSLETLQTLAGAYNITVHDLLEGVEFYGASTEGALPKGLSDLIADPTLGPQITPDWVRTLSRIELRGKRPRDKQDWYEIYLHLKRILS

**Q.** For “TATAGGTACCGGTACTCCTTCCTGTCCGACAGCAGACAGCGAGGCAAAGCATGAATAGTCGGTCTTAAGGGGGTAAAAGCCTTCTTGATTACGATCATAGCAGATCGTCTCGTGGTGGGCAAGAAGAACTCCTCTCTATTCTGTATTGACCGTACCGGGAAGCGGTGTTACACTCCAACCAAGGGTGCCCGATTCTGCCTACAGGCAAACGCTCCCCCAGGCGGCCCGCCCGGTCAGCGCACAGTCCCGGTCGCTCAAAGCTGCAGTATC (double strand) [ddrOC-ddrQ intergenic region]”, which binding [1] is on record?
**A.** no binding

**Q.** And the binding [2]?
**A.** binds
